Data on six molecules can be found in patent US20230330143A1 (GAMMADELTA THERAPEUTICS, published 2023).

To fix the notation:
B1: 1245_P01_G06 (antibody, V domains shown)
VH: QVQLVESGGGLVKPGGSLRLSCAASGFTFSDYYMSWIRQAPGKGLEWVSYISSSGSTIYYADSVKGRFTISRDNAKNSLYLQMNSLRAEDTAVYYCARHSWNDAFDVWGQGTLVTVSS
VL: not shown
B2: 1245_P01_E07 (antibody, V domains shown)
VH: QVQLVESGGGLVKPGGSLRLSCAASGFTFSDYYMSWIRQAPGKGLEWVSYISSSGSTIYYADSVKGRFTISRDNAKNSLYLQMNSLRAEDTAVYYCARVDYADAFDIWGQGTLVTVSS
VL: DIQMTQSPSSLSASVGDRVTIACRAGQSIGTYLNWYQQKPGKAPKLLIYVASSLQSGVPSRFSGSGSGTEFTLTISSLQPEDFATYYCQQSYSTLLTFGRGTKVEIK
B3: 1245_P02_G04 (antibody, V domains shown)
VH: QVQLQQSGPGLVKPSQTLSLTCAISGDSVSSKSAAWNWIRQSPSRGLEWLGRTYYRSKWSTDYAASVKSRITINPDTSKNQLSLQLNSVTPEDTAVYYCARTWSGYVDVWGQGTLVTVSS
VL: DIQMTQSPPALSASVGDRVTITCRASQDINDWLAWYQHKPGKAPKLLIYDASSLESGVPSRFSGSGSGTEFTLTISSLQPDDFATYYCQQSYSTPQVTFGQGTRLEIK
B4: 1252_P01_C08 (antibody, V domains shown)
VH: EVQLLESGGGLVQPGRSLRLSCAASGFTVSSNYMSWVRQAPGKGLEWVSVIYSGGSTYYADSVKGRFTISRDNSKNTLYLQMNSLRAEDTAVYYCASPIELGAFDIWGQGTLVTVSS
VL: SSYELTQPPSVSVAPGKTARITCGGNNIGSQSVHWYQQKPGQAPMLVIYYDSDRPSGIPERFSGSNSGNTATLTISRVEAGDEADYYCQVWDSSSDHVVFGGGTKLTVL
notes: Anti-Vδ1 antibody with a lambda light chain
B5: 1139_P01_E04 (antibody, V domains shown)
VH: QVQLQQSGPGLVKPSQTLSLTCAISGDSVSSNSAAWNWIRQSPSRGLEWLGRTYYRSKWYNDYAVSVRSRITINPDTSKNQFSLQLNSVTPEDTAVYYCARSWNDAFDIWGQGTTVTVSS
VL: DIVMTQSPSTLSASIGDRVTITCRAGQSISTWLAWYQQKPGKAPKLLIYDASSLESGVPLRFSGSGSGTDFTLTISSLQPEDFATYYCQQSYSTPLTFGGGTKVEIK
B6: 1245_P01_G09 (antibody, V domains shown)
VH: QVQLQQSGPGLVKPSQTLSLTCAISGDSVSSNSAAWNWIRQSPSRGLEWLGRTYYGSKWYNEYALSVKSRIIINPDTSKNQFSLQLNSVTPEDTAVYYCARDYYYSMDVWGQGTLVTVSS
VL: DIVMTQSPSTLSASIGDRVTITCRAGQSISTWLAWYQQKPGKAPKLLIYDASSLESGVPLRFSGSGSGTEFTLAISSLQPDDFATYYCQQSYSTPVTFGQGTKVEIK

This test has as its target Vδ1 chain-containing γδ TCR on γδ T cells. The test is described as follows: cell-based or functional assay.
With B1, the “T cell degranulation (EC50 µg/ml - 3 donors)” value (shortened to “T cell degranulation”) is 0.001 µg/mL. For B2, the “Killing assay (EC50 µg/ml - 2 or 3 donors)” value (from here on “Killing assay”) was found to be 0.06 µg/mL. Regarding B3, the “Killing assay” value amounted to 0.1 µg/mL and the “T cell degranulation” value turned out to be 0.002 µg/mL. Regarding B4, the “Killing assay” value was found to be 0.02 µg/mL. Take B5: the “T cell degranulation” value came to 0.005 µg/mL. On the same count and under the same terms, to B6 belongs 0.001 µg/mL.
